According to US20210395344A1 (TWIST BIOSCIENCE, published 2021):

biological target: T1, Acro COVID S1 (S1N-C82E8) (SARS-CoV-2, UniProt P0DTC2 16-685); assay: phage ELISA
T1 construct: domain: S1

Binder | ELISA fold over background
1-29 (antibody, V domains shown, also called variant 1-29) VH: EVQLLESGGGLVQPGGSLRLSCAASGFTFSSYAMYWVRQAPGKGLEWVSAISGSAGSTYYADSVKGRFTISRDNSKNTLYLQMNSLRAEDTAVYYCARDTNDFWSGYSIFDPWGQGTLVTVSS VL: QSALTQPASVSGSPGQSITISCTGTSSDIGSYNLVSWYQQHPGKAPKLMIYEGTKRPSGVSNRFSGSKSGNTASLTISGLQAEDEADYYCCSYAGSRTYVFGGGTKLTVL | 1.1 fold over background
1-2 (antibody, V domains shown, also called variant 1-2) VH: EVQLLESGGGLVQPGGSLRLSCAASGFTFSSQAMSWVRQAPGKGLEWVSAISGSGGGTYYADSVKGRFTISRDNSKNTLYLQMNSLRAEDTAVYYCAKDRRFGEFDPWGQGTLVTVSS VL: QSALTQPASVSGSPGQSITISCTGTSSGVGSYNLVSWYQQHPGKAPKLMIYEGIKRPSGVSNRFSGSKSGNTASLTISGLQAEDEADYYCCSYAGSSSFVVFGGGTKLTVL | 1.8 fold over background

biological target: T1, Acro COVID S1 (S1N-C82E8); assay: phage ELISA; remark: another data set of the same source

Binder | ELISA fold over background
1-29 (antibody, V domains shown, also called variant 1-29) VH: EVQLLESGGGLVQPGGSLRLSCAASGFTFSSYAMYWVRQAPGKGLEWVSAISGSAGSTYYADSVKGRFTISRDNSKNTLYLQMNSLRAEDTAVYYCARDTNDFWSGYSIFDPWGQGTLVTVSS VL: QSALTQPASVSGSPGQSITISCTGTSSDIGSYNLVSWYQQHPGKAPKLMIYEGTKRPSGVSNRFSGSKSGNTASLTISGLQAEDEADYYCCSYAGSRTYVFGGGTKLTVL | 1.1 fold over background
1-2 (antibody, V domains shown, also called variant 1-2) VH: EVQLLESGGGLVQPGGSLRLSCAASGFTFSSQAMSWVRQAPGKGLEWVSAISGSGGGTYYADSVKGRFTISRDNSKNTLYLQMNSLRAEDTAVYYCAKDRRFGEFDPWGQGTLVTVSS VL: QSALTQPASVSGSPGQSITISCTGTSSGVGSYNLVSWYQQHPGKAPKLMIYEGIKRPSGVSNRFSGSKSGNTASLTISGLQAEDEADYYCCSYAGSSSFVVFGGGTKLTVL | 1.8 fold over background

biological target: T2, Acro COVID S1 (S1N-C82E8) (SARS-CoV-2, UniProt P0DTC2 16-685); assay: phage ELISA
T2 construct: domain: S1 (subunit 1)

Binder | specificity ELISA, fold over background
SARS-CoV-2 variant 1-37 (antibody, V domains shown) VH: EVQLLESGGGLVQPGGSLRLSCAASGFTFTSYAMNWVRQAPGKGLEWVTAISGSGGSTFYADSVKGRFTISRDNSKNTLYLQMNSLRAEDTAVYYCTRPPYGDYGDYWGQGTLVTVSS VL: QSALTQPASVSGSPGQSITISCTGTSSDIGSYNLVSWYQQHPGKAPKLMIYEGTKRPSGVSNRFSGSKSGNTASLTISGLQAEDEADYYCCSYAGSRTYVFGGGTKLTVL | 11.6 fold over background
SARS-CoV-2 variant 1-17 (antibody, V domains shown) VH: EVQLLESGGGLVQPGGSLRLSCAASGFTFSSYAMYWVRQAPGKGLEWVSAISGSAGSTYYADSVKGRFTISRDNSKNTLYLQMNSLRAEDTAVYYCARDTNDFWSGYSIFDPWGQGTLVTVSS VL: QSALTQPASVSGSPGQSITISCTGTSSDIGSYNLVSWYQQHPGKAPKLMIYEGTKRPSGVSNRFSGSKSGNTASLTISGLQAEDEADYYCCSYAGSRTYVFGGGTKLTVL | 25.1 fold over background
SARS-CoV-2 variant 1-29 (antibody, V domains shown) VH: EVQLLESGGGLVQPGGSLRLSCAASGFTFSSYAMYWVRQAPGKGLEWVSAISGSAGSTYYADSVKGRFTISRDNSKNTLYLQMNSLRAEDTAVYYCARDTNDFWSGYSIFDPWGQGTLVTVSS VL: QSALTQPASVSGSPGQSITISCTGTSSDIGSYNLVSWYQQHPGKAPKLMIYEGTKRPSGVSNRFSGSKSGNTASLTISGLQAEDEADYYCCSYAGSRTYVFGGGTKLTVL | 1.1 fold over background
SARS-CoV-2 variant 1-38 (antibody, V domains shown) VH: EVQLLESGGGLVQPGGSLRLSCAASGITFSSYAMSWVRQAPGKGLEWVSGISGSGGSTYYADSVKGRFTISRDNSKNTLYLQMNSLRAEDTAVYYCAKHGSGTIFGVVIAKYYFDYWGQGTLVTVSS VL: QSALTQPASVSGSPGQSITISCTGTSSDIGSYNLVSWYQQHPGKAPKLMIYEGTKRPSGVSNRFSGSKSGNTASLTISGLQAEDEADYYCCSYAGSRTYVFGGGTKLTVL | 1.1 fold over background
SARS-CoV-2 variant 1-8 (antibody, V domains shown) VH: EVQLLESGGGLVQPGGSLRLSCAASGFTFSSYDMSWVRQAPGKGLEWVSVISGSGGSTYYADSVKGRFTISRDNSKNTLYLQMNSLRAEDTAVYYCAKGPLVGWYFDLWGQGTLVTVSS VL: QSALTQPASVSGSPGQSITISCTGTSNDVGSYNLVSWYQQHPGKAPKLMIYEGSKRPSGVSNRFSGSKSGNTASLTISGLQAEDEADYYCCSYAGSRYVVFGGGTKLTVL | 12 fold over background
SARS-CoV-2 variant 1-42 (antibody, V domains shown) VH: EVQLLESGGGLVQPGGSLRLSCAASGVTFSSYAMSWVRQAPGKGLEWVSAITGSGGSTYYADSVKGRFTISRDNSKNTLYLQMNSLRAEDTAVYYCAKHGSGTIFGVVIAKYYFDYWGQGTLVTVSS VL: QSALTQPASVSGSPGQSITISCTGTSSDVGRYNLVSWYQQHPGKAPKLMIYEGGKRPSGVSNRFSGSKSGNTASLTISGLQAEDEADYYCCSYASSSTLVFGGGTKLTVL | 22.7 fold over background
SARS-CoV-2 variant 1-41 (antibody, V domains shown) VH: EVQLLESGGGLVQPGGSLRLSCAASGFTFSSYDMSWVRQAPGKGLEWVSVISGSGGSTYYADSVKGRFTISRDNSKNTLYLQMNSLRAEDTAVYYCAKGPLVGWYFDLWGQGTLVTVSS VL: QSALTQPASVSGSPGQSITISCTGTSSDIGSYNLVSWYQQHPGKAPKLMIYEGTKRPSGVSNRFSGSKSGNTASLTISGLQAEDEADYYCCSYAGSRTYVFGGGTKLTVL | 4.5 fold over background
SARS-CoV-2 variant 1-27 (antibody, V domains shown) VH: EVQLLESGGGLVQPGGSLRLSCAASGFTFSSYAMTWVRQAPGKGLEWVSAISGSGGGTYYADSVKGRFTISRDNSKNTLYLQMNSLRAEDTAVYYCASSSSWQFDYWGQGTLVTVSS VL: QSALTQPASVSGSPGQSITISCTGTSSYVGHYNLVSWYQQHPGKAPKLMIYEGSRRPSGVSNRFSGSKSGNTASLTISGLQAEDEADYYCCSYAGSYTHYVFGGGTKLTVL | 1.5 fold over background
SARS-CoV-2 variant 1-2 (antibody, V domains shown) VH: EVQLLESGGGLVQPGGSLRLSCAASGFTFSSQAMSWVRQAPGKGLEWVSAISGSGGGTYYADSVKGRFTISRDNSKNTLYLQMNSLRAEDTAVYYCAKDRRFGEFDPWGQGTLVTVSS VL: QSALTQPASVSGSPGQSITISCTGTSSGVGSYNLVSWYQQHPGKAPKLMIYEGIKRPSGVSNRFSGSKSGNTASLTISGLQAEDEADYYCCSYAGSSSFVVFGGGTKLTVL | 1.8 fold over background
SARS-CoV-2 variant 1-26 (antibody, V domains shown) VH: EVQLLESGGGLVQPGGSLRLSCAASGFTFSSYAISWVRQAPGKGLEWVSAISGSGYSTYYADSVKGRFTISRDNSKNTLYLQMNSLRAEDTAVYYCARGAPDSSGYYFQGEVYFDYWGQGTLVTVSS VL: QSALTQPASVSGSPGQSITISCTGTSSDVGGYNLVSWYQQHPGKAPKLMIYEGTKRPSGVSNRFSGSKSGNTASLTISGLQAEDEADYYCCSFVRSSAHVVFGGGTKLTVL | 1.4 fold over background
SARS-CoV-2 variant 1-47 (antibody, V domains shown) VH: EVQLLESGGGLVQPGGSLRLSCAASGFTFSSQAMSWVRQAPGKGLEWVSAISGSGGGTYYADSVKGRFTISRDNSKNTLYLQMNSLRAEDTAVYYCAKDRRFGEFDPWGQGTLVTVSS VL: QSALTQPASVSGSPGQSITISCTGTSSGVGSYNLVSWYQQHPGKAPKLMIYEGIKRPSGVSNRFSGSKSGNTASLTISGLQAEDEADYYCCSYAGSSSFVVFGGGTKLTVL | 8.1 fold over background
SARS-CoV-2 variant 1-3 (antibody, V domains shown) VH: EVQLLESGGGLVQPGGSLRLSCAASGFTFSSQAMSWVRQAPGKGLEWVSAISGSGGGTYYADSVKGRFTISRDNSKNTLYLQMNSLRAEDTAVYYCAKDRRFGEFDPWGQGTLVTVSS VL: QSALTQPASVSGSPGQSITISCTGISSDVGSYNLVSWYQQHPGKAPKLMIYEGTKRPSGVSNRFSGSKSGNTASLTISGLQAEDEADYYCCSYAGSSSFVVFGGGTKLTVL | 1.6 fold over background
SARS-CoV-2 variant 1-4 (antibody, V domains shown) VH: EVQLLESGGGLVQPGGSLRLSCAASGFTFSSQAMSWVRQAPGKGLEWVSAISGSGGGTYYADSVKGRFTISRDNSKNTLYLQMNSLRAEDTAVYYCAKDRRFGEFDPWGQGTLVTVSS VL: QSALTQPASVSGSPGQSITISCTGTSSDVGTYNLVSWYQQHPGKAPKLMIYEGSQRPSGVSNRFSGSKSGNTASLTISGLQAEDEADYYCCSYAGSSSFVVFGGGTKLTVL | 1 fold over background
SARS-CoV-2 variant 1-5 (antibody, V domains shown) VH: EVQLLESGGGLVQPGGSLRLSCAASGFTFSSQAMSWVRQAPGKGLEWVSAISGSGGGTYYADSVKGRFTISRDNSKNTLYLQMNSLRAEDTAVYYCAKDRRFGEFDPWGQGTLVTVSS VL: QSALTQPASVSGSPGQSITISCTGTSSGVGSYNLVSWYQQHPGKAPKLMIYEASKRPSGVSNRFSGSKSGNTASLTISGLQAEDEADYYCCSYAGSYTFAVFGGGTKLTVL | 1.5 fold over background
SARS-CoV-2 variant 1-33 (antibody, V domains shown) VH: EVQLLESGGGLVQPGGSLRLSCAASGFTFSSYAMIWVRQAPGKGLEWVSAISGSGGSTFYADSVKGRFTISRDNSKNTLYLQMNSLRAEDTAVYYCTRPPYGDYGDYWGQGTLVTVSS VL: QSALTQPASVSGSPGQSITISCTGTSSDVGSYNLLSWYQQHPGKAPKLMIYEASKRPSGVSNRFSGSKSGNTASLTISGLQAEDEADYYCCSYAGSRTPVVFGGGTKLTVL | 7.1 fold over background
SARS-CoV-2 variant 1-28 (antibody, V domains shown) VH: EVQLLESGGGLVQPGGSLRLSCAASGFTFSSYGMSWVRQAPGKGLEWVSAISGSGGGTYYADSVKGRFTISRDNSKNTLYLQMNSLRAEDTAVYYCASSSSWQFDYWGQGTLVTVSS VL: QSALTQPASVSGSPGQSITISCTGTSSGVGSYNLVSWYQQHPGKAPKLMIYEGSQRPSGVSNRFSGSKSGNTASLTISGLQAEDEADYYCCSYAGSSTHYVFGGGTKLTVL | 1 fold over background
SARS-CoV-2 variant 1-32 (antibody, V domains shown) VH: EVQLLESGGGLVQPGGSLRLSCAASGFTFSSYAMYWVRQAPGKGLEWVSAISGSGGSTFYADSVKGRFTISRDNSKNTLYLQMNSLRAEDTAVYYCTRPPYGDYGDYWGQGTLVTVSS VL: QSALTQPASVSGSPGQSITISCTGTSSDVGGYNLVSWYQQHPGKAPKLMIYEGNKRPSGVSNRFSGSKSGNTASLTISGLQAEDEADYYCCSYAGSSTFPVVFGGGTKLTVL | 11.5 fold over background
SARS-CoV-2 variant 1-21 (antibody, V domains shown) VH: EVQLLESGGGLVQPGGSLRLSCAASGFTFSSYTMSWVRQAPGKGLEWVSIISGSGGSTYYADSVKGRFTISRDNSKNTLYLQMNSLRAEDTAVYYCAREGYRDYLWYFDLWGQGTLVTVSS VL: QSALTQPASVSGSPGQSITISCTGTSSDVGSNNLVSWYQQHPGKAPKLMIYEGNKRPSGVSNRFSGSKSGNTASLTISGLQAEDEADYYCCSYAGSVVFGGGTKLTVL | 19.5 fold over background
